Biological target: PAM4 antigen (human pancreatic cancer mucin, CaPan1) (human)
Experiment: ELISA on target mucin antigen (FIG. 9)

B1: monovalent bsPAM4 chemical conjugate (PAM4-Fab′ x anti-DTPA-Fab′) (bispecific antibody, part only; not given: Anti-DTPA Fab′ and constant parts, V domains shown, part only)
VH: QVQLQESGPELVKPGASVKMSCKASGYTFPSYVLHWVKQKPGQGLEWIGYINPYNDGTQYNEKFKGKATLTSDKSSSTAYMELSRLTSEDSAVYYCARGFGGSYGFAYWGQGTLITVSS
VL: DIQLTQSPAIMSASPGEKVTMTCSASSSVSSSYLYWYQQKPGSSPKLWIYSTSNLASGVPARFSGSGSGTSYSLTISSMEAEDAASYFCHQWNRYPYTFGGGTKLEIKR
Question: B1 was tested. Which EC50 did it give?
Answer: 30.6 nM
